Measured values: patent US20060270591A1 (published 2006)

T1: VP16 fused AR (Example 3) (human, UniProt P10275 36-920)
T1 construct: also called VP16-AR
T1 sequence: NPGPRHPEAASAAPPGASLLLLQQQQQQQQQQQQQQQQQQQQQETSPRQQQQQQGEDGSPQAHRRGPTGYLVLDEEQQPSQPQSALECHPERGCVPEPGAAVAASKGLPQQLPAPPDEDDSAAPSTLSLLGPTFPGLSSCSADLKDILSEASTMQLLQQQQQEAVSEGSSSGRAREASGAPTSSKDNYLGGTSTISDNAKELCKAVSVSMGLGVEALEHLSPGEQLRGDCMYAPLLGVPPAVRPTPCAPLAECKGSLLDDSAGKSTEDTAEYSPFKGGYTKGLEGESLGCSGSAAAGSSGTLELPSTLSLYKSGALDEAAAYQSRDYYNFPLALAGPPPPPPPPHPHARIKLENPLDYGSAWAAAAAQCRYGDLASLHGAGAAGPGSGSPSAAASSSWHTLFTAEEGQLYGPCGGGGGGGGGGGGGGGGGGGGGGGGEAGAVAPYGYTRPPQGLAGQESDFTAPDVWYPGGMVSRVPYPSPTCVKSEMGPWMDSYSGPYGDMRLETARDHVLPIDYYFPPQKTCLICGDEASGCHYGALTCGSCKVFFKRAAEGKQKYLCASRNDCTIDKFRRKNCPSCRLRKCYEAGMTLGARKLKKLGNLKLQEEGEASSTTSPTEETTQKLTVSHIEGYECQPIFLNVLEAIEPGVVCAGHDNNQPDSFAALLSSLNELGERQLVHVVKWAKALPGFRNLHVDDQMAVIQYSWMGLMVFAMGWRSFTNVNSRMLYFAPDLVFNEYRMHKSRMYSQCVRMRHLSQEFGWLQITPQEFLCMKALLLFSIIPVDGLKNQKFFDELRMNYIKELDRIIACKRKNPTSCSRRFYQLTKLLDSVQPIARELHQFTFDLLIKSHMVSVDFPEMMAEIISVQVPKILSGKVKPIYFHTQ

T2: VP16 fused near full-length AR (nAR, aa 36-918) (human, UniProt P10275 36-919)
T2 sequence: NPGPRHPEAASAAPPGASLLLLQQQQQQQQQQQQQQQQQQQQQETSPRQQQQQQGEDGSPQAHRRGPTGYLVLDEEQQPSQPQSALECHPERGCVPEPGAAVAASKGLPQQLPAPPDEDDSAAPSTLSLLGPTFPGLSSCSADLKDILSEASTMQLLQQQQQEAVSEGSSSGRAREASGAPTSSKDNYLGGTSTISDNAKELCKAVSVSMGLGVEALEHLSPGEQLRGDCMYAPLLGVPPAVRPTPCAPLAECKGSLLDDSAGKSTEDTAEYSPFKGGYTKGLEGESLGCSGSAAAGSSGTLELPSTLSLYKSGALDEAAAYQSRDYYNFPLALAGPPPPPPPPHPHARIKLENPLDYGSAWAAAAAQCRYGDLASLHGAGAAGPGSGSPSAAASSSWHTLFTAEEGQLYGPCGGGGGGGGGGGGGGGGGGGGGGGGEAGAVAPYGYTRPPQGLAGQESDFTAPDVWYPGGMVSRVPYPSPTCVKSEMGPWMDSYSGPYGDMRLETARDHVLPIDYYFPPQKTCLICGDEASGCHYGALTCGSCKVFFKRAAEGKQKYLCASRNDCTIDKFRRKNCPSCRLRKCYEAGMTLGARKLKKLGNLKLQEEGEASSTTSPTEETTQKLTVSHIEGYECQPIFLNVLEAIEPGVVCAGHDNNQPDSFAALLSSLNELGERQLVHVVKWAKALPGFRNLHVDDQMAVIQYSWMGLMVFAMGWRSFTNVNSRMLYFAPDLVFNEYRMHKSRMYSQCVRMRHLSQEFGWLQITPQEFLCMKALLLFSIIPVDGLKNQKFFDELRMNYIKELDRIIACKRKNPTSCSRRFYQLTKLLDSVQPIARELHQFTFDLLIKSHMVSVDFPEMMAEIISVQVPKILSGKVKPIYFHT

T3: androgen receptor (AR), full-length, human (human, UniProt P10275 1-920)
T3 sequence: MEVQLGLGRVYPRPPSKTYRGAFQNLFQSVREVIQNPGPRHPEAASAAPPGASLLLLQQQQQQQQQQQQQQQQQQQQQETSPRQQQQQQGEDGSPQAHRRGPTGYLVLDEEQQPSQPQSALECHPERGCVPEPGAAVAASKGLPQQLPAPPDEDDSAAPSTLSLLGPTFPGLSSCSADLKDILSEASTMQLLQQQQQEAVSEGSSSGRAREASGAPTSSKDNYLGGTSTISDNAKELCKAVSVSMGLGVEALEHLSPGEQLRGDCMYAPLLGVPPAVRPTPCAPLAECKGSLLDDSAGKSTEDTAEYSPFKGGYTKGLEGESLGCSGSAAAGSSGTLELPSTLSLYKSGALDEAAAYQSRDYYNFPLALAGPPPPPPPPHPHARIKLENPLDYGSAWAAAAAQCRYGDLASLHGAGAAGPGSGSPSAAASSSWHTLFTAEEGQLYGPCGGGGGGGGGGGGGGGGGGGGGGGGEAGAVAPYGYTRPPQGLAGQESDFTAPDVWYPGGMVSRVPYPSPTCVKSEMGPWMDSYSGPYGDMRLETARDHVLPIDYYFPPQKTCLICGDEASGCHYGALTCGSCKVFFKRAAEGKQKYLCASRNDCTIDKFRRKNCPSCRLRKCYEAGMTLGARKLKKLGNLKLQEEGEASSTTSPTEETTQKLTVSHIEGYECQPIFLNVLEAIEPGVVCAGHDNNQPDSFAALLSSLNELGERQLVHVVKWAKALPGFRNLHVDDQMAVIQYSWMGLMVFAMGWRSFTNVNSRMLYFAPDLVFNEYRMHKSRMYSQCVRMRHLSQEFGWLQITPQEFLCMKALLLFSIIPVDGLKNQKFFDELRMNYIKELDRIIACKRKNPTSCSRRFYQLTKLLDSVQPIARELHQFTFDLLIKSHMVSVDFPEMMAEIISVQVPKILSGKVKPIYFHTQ

B1: GAL4 DBD fused ARA70-C (aa 383-614) (other)
chain: MKLLSSIEQACDICRLKKLKCSKEKPKCAKCLKNNWECRYSPKTKRSPLTRAHLTEVESRLERLEQLFLLIFPREDLDMILKMDSLQDIKALLTGLFVQDNVNKDAVTDRLASVETDMPLTLRQHRISATSSSEESSNKGQRQLTVSSMVTEDWLVQNHQDPCKVEEVCRANEPCTSFAECVCDENCEKEALYKWLLKKEGKDKNGMPVEPKPEPEKHKDSLNMWLCPRKEVIEQTKAPKAMTPSRIADSFQVIKNSPLSEWLIRPPYKEGSPKEVPGTEDRAGKQKFKSPMNTSWCSFNTADWVLPGKKMGNLSQLSSGEDKWLLRKKAQEVLLNSPLQEEHNFPPDHYGLPAVCDLFACMQLKVDKEKWLYRTPLQM
notes: Mammalian two-hybrid
B2: GAL4 DBD fused Rb fragment (aa 371-928) (other)
chain: MKLLSSIEQACDICRLKKLKCSKEKPKCAKCLKNNWECRYSPKTKRSPLTRAHLTEVESRLERLEQLFLLIFPREDLDMILKMDSLQDIKALLTGLFVQDNVNKDAVTDRLASVETDMPLTLRQHRISATSSSEESSNKGQRQLTVSPHTPVRTVMNTIQQLMMILNSASDQPSENLISYFNNCTVNPKESILKRVKDIGYIFKEKFAKAVGQGCVEIGSQRYKLGVRLYYRVMESMLKSEEERLSIQNFSKLLNDNIFHMSLLACALEVVMATYSRSTSQNLDSGTDLSFPWILNVLNLKAFDFYKVIESFIKAEGNLTREMIKHLERCEHRIMESLAWLSDSPLFDLIKQSKDREGPTDHLESACPLNLPLQNNHTAADMYLSPVRSPKKKGSTTRVNSTANAETQATSAFQTQKPLKSTSLSLFYKKVYRLAYLRLNTLCERLLSEHPELEHIIWTLFQHTLQNEYELMRDRHLDQIMMCSMYGICKVKNIDLKFKIIVTAYKDLPHAVQETFKRVLIKEEEYDSIIVFYNSVFMQRLKTNILQYASTRPPTLSPIPHIPRSPYKFPSSPLRIPGGNIYISPLKSPYKISEGLPTPTKMTPRSRILVSIGESFGTSEKFQKINQMVCNSDRVLKRSAEGSNPPKPLKKLRFDIEGSDEADGSKHLPGESKFQQKLAEMTSTRTRMQKQKMNDSMDTSNKEEK
B3: ARA70N (aa 1-401) with wild-type FXXLF, expressed from pSG5 (other)
chain: MNTFQDQSGSSSNREPLLRCSDARRDLELAIGGVLRAEQQIKDNLREVKAQIHSCISRHLECLRSREVWLYEQVDLIYQLKEETLQQQAQQLYSLLGQFNCLTHQLECTQNKDLANQVSVCLERLGSLTLKPEDSTVLLFEADTITLRQTITTFGSLKTIQIPEHLMAHASSANIGPFLEKRGCISMPEQKSASGIVAVPFSEWLLGSKPASGYQAPYIPSTDPQDWLTQKQTLENSQTSSRACNFFNNVGGNLKGLENWLLKSEKSSYQKCNSHSTTSSFSIEMEKVGDQELPDQDEMDLSDWLVTPQESHKLRKPENGSRETSEKFKLLFQSYNVNDWLVKTDSCTNCQGNQPKGVEIENLGNLKCLNDHLEAKKPLSTPSMVTEDWLVQNHQDPCKVE
B4: GAL4 DBD fused ARA70-N1 (aa 1-175) (other)
chain: MKLLSSIEQACDICRLKKLKCSKEKPKCAKCLKNNWECRYSPKTKRSPLTRAHLTEVESRLERLEQLFLLIFPREDLDMILKMDSLQDIKALLTGLFVQDNVNKDAVTDRLASVETDMPLTLRQHRISATSSSEESSNKGQRQLTVSMNTFQDQSGSSSNREPLLRCSDARRDLELAIGGVLRAEQQIKDNLREVKAQIHSCISRHLECLRSREVWLYEQVDLIYQLKEETLQQQAQQLYSLLGQFNCLTHQLECTQNKDLANQVSVCLERLGSLTLKPEDSTVLLFEADTITLRQTITTFGSLKTIQIPEHLMAHASSANI
notes: Mammalian two-hybrid
B5: VP16 fused AR-LBD (aa 590-918) (receptor)
chain: KQKYLCASRNDCTIDKFRRKNCPSCRLRKCYEAGMTLGARKLKKLGNLKLQEEGEASSTTSPTEETTQKLTVSHIEGYECQPIFLNVLEAIEPGVVCAGHDNNQPDSFAALLSSLNELGERQLVHVVKWAKALPGFRNLHVDDQMAVIQYSWMGLMVFAMGWRSFTNVNSRMLYFAPDLVFNEYRMHKSRMYSQCVRMRHLSQEFGWLQITPQEFLCMKALLLFSIIPVDGLKNQKFFDELRMNYIKELDRIIACKRKNPTSCSRRFYQLTKLLDSVQPIARELHQFTFDLLIKSHMVSVDFPEMMAEIISVQVPKILSGKVKPIYFHT
notes: also called pCMX-VP16-AR
B6: ARA70 (mammalian two-hybrid construct of Example 1) (other)
chain: MNTFQDQSGSSSNREPLLRCSDARRDLELAIGGVLRAEQQIKDNLREVKAQIHSCISRHLECLRSREVWLYEQVDLIYQLKEETLQQQAQQLYSLLGQFNCLTHQLECTQNKDLANQVSVCLERLGSLTLKPEDSTVLLFEADTITLRQTITTFGSLKTIQIPEHLMAHASSANIGPFLEKRGCISMPEQKSASGIVAVPFSEWLLGSKPASGYQAPYIPSTDPQDWLTQKQTLENSQTSSRACNFFNNVGGNLKGLENWLLKSEKSSYQKCNSHSTTSSFSIEMEKVGDQELPDQDEMDLSDWLVTPQESHKLRKPENGSRETSEKFKLLFQSYNVNDWLVKTDSCTNCQGNQPKGVEIENLGNLKCLNDHLEAKKPLSTPSMVTEDWLVQNHQDPCKVEEVCRANEPCTSFAECVCDENCEKEALYKWLLKKEGKDKNGMPVEPKPEPEKHKDSLNMWLCPRKEVIEQTKAPKAMTPSRIADSFQVIKNSPLSEWLIRPPYKEGSPKEVPGTEDRAGKQKFKSPMNTSWCSFNTADWVLPGKKMGNLSQLSSGEDKWLLRKKAQEVLLNSPLQEEHNFPPDHYGLPAVCDLFACMQLKVDKEKWLYRTPLQM
notes: pGAL4-VP16 was used to construct a fusion of ARA70; limits and fusion partner not clearly stated

Legend:
[1] = target: T1, VP16 fused AR (Example 3); test: mammalian two-hybrid, DU145, pG5-Luc
[2] = target: T2, VP16 fused near full-length AR (nAR, aa …); test: cell-based or functional assay
[3] = target: T3, androgen receptor (AR), full-length, …; test: cell-based or functional assay
[4] = target: B2; test: mammalian two-hybrid, DU145, CAT
[5] = target: pGAL0-AR: GAL4 DBD (a.a. 1-147) fused to hinge and LBD of wtAR (human, UniProt P04386 1-147 (Saccharomyces cerevisiae entry)); test: cell-based or functional assay

Binder	binding result [1]	binding result [4]	also measured
B1	no binding	–	–
B2	–	–	CAT activity, mammalian two-hybrid system, DU145 cells [2]: 3 fold
B3	–	–	AR transactivation (MMTV-LUC, COS-1, 10 nM T) [3]: 310 fold
B4	no binding	–	–
B5	–	no binding	–
B6	–	no binding	CAT activity, mammalian two-hybrid assay [5]: 12 fold
